B1: AMX84-F11 (ssRNA)
RNA: GGGAAAAGCGAAUCAUACACAAGAUGUGCUUGAGUUAAAUCUCAUCGUCCCCGUUUGGGGAUAUGCUCCGCCAGAGACCAACCGAGAA
modifications: 2'-F C,U
B2: B10.min4 (ssRNA)
RNA: GGAGCAUACACAAGAAGUGCUUCAUGCGGCAAACUGCAUGACGUCGAAUAGAUAUGCUCC
modifications: 2'-F C,U
B3: AMX84-C10 (ssRNA)
RNA: GGGAAAAGCGAAUCAUACACAAGAGAUGUAUUCAGGCGGUCCGCAUUGAUGUCAGUUAUGCGUAGCUCCGCCAGAGACCAACCGAGAA
modifications: 2'-F C,U
B4: F11.min2 (ssRNA)
RNA: GGACAUACACAAGAUGUGCUUGAGUUAAAUCUCAUCGUCCCCGUUUGGGGAUAUGUC
modifications: 2'-F C,U
B5: AMX91-H3 (ssRNA)
RNA: GGGAAAAGCGAAUCAUACACAAGACAUUGUGCUUUAUCACGUGGGUGAUAACGACGAAAGUUAUGCUCCGCCAGAGACCAACCGAGAA
modifications: 2'-F C,U
B6: AMX84-G11 (ssRNA)
RNA: GGGAAAAGCGAAUCAUACACAAGAGUGCUUCGUAUGUUGAAUACGACGUUCGCAGGACGAAUAUGCUCCGCCAGAGACCAACCGAGAA
modifications: 2'-F C,U
B7: A10.min5 (ssRNA)
RNA: GGAGCAUACACAAGAAGUUUUUUGUGCUCUGAGUACUCAGCGUCCGUAAGGGAUAUGCUCC
modifications: 2'-F C,U
B8: AMX86-B5 (ssRNA)
RNA: GGGAAAAGCGAAUCAUACACAAGAUUAGUGCGUGUGUUGAAAGGGCUCAUAAUGUCAGUAUCGAGCUCCGCCAGAGACCAACCGAGAA
modifications: 2'-F C,U
B9: AMX86-G9 (ssRNA)
RNA: GGGAAAAGCGAAUCAUACACAAGAUCCCAGCGGUACGUGAGUCUGUUAAAGGCCACCUAAUGUCGCUCCGCCAGAGACCAACCGAGAA
modifications: 2'-F C,U
B10: AMX84-A11 (ssRNA)
RNA: GGGAAAAGCGAAUCAUACACAAGAGAGGUAUGUGGUUUUGCGGAGCAACUCGUGUCAGCGGUCAGCUCCGCCAGAGACCAACCGAGAA
modifications: 2'-F C,U
B11: AMX91-F11 (ssRNA)
RNA: GGGAAAAGCGAAUCAUACACAAGACGCGUCAGGUCCACGCUGAAAUUUAUUUUCGGCAGUGUAAGCUCCGCCAGAGACCAACCGAGAA
modifications: 2'-F C,U
B12: AMX91-E3 (ssRNA)
RNA: GGGAAAAGCGAAUCAUACACAAGAUUACUCCGUUAGUGUCAGUUGACGGAGGGAGCGUACUAUUGCUCCGCCAGAGACCAACCGAGAA
modifications: 2'-F C,U
B13: AMX91-G11 (ssRNA)
RNA: GGGAAAAGCGAAUCAUACACAAGACUUAACAGUGCGGGGCGCAGUGUAUAGAUCCGCAAUGUGUGCUCCGCCAGAGACCAACCGAGAA
modifications: 2'-F C,U
B14: AMX86-H7 (ssRNA)
RNA: GGGAAAAGCGAAUCAUACACAAGAGAUGACUACACGCCAGUGUGCGCUUUUUGCGGAGUUAGCGGCUCCGCCAGAGACCAACCGAGAA
modifications: 2'-F C,U
B15: AMX86-C8 (ssRNA)
RNA: GGGAAAAGCGAAUCAUACACAAGAGUCGUGAUGAUUUGGGUUAUGUCAGUUCCCUGUAUGGUUUCGCUCCGCCAGAGACCAACCGAGAA
modifications: 2'-F C,U
B16: AMX91-G1 (ssRNA)
RNA: GGGAAAAGCGAAUCAUACACAAGAUAUGUGCCUGGGAUGGACGACAUCCCCUGUCUAAGGAUAUGCUCCGCCAGAGACCAACCGAGAA
modifications: 2'-F C,U
B17: AMX91-H12 (ssRNA)
RNA: GGGAAAAGCGAAUCAUACACAAGACGUGUGCUUUAUGUAAACCAUAACGUUCCAUAAGGAAUAUGCUCCGCCAGAGACCAACCGAGAA
modifications: 2'-F C,U
B18: AMX86-A9 (ssRNA)
RNA: GGGAAAAGCGAAUCAUACACAAGAUCUACGAUUGUUCAGGUUUUUUGUACUCAACUAAAGGCGAGCUCCGCCAGAGACCAACCGAGAA
modifications: 2'-F C,U
B19: AMX86-F6 (ssRNA)
RNA: GGGAAAAGCGAAUCAUACACAAGAAUGUAUACAAUGCCCUAUCGUCAGUUAGGCAUGUGUGGAUGCUCCGCCAGAGACCAACCGAGAA
modifications: 2'-F C,U
B20: AMX86-C7 (ssRNA)
RNA: GGGAAAAGCGAAUCAUACACAAGAUGCGCUAUGUUUGGCUGGGAAUUGUAGCAUUGCUCAAGUGGCUCCGCCAGAGACCAACCGAGAA
modifications: 2'-F C,U
B21: AMX91-B5 (ssRNA)
RNA: GGGAAAAGCGAAUCAUACACAAGACAGUGUAUGAGGAAGAUUACUUCCAUUCCUGAGCGGUUUUCGCUCCGCCAGAGACCAACCGAGAA
modifications: 2'-F C,U
B22: AMX84-E12 (ssRNA)
RNA: GGGAAAAGCGAAUCAUACACAAGAAGUUUUUGUGCUCUGAGUACUCAGCGUCCGUAAGGGAUAUGCUCCGCCAGAGACCAACCGAGAA
modifications: 2'-F C,U
B23: AMX86-D8 (ssRNA)
RNA: GGGAAAAGCGAAUCAUACACAAGACAGAGGCAAUGAGAGCCUGGCGAUGUCAGUCGCAUCUUGCUGCUCCGCCAGAGACCAACCGAGAA
modifications: 2'-F C,U
B24: AMX86-E6 (ssRNA)
RNA: GGGAAAAGCGAAUCAUACACAAGAUCGCAAAAGGAGUUUGUCUCUGCUCUCGGAGUGUGUCAGUGCUCCGCCAGAGACCAACCGAGAA
modifications: 2'-F C,U
B25: AMX91-A6 (ssRNA)
RNA: GGGAAAAGCGAAUCAUACACAAGAUUGGCAAUGUGACCUUCAACCCUUUUCCCGAUGAACAGUGGCUCCGCCAGAGACCAACCGAGAA
modifications: 2'-F C,U

biological target: T1, IL-23 (human, p19/p40 heterodimer) (Homo sapiens, UniProt Q9NPF7;P29460 SEQ:20-189,SEQ:23-328); assay: cell_activity; TransAM STAT3; conditions: tags: R&D Systems, carrier free
T1 sequence (Q9NPF7 20-189, chain 1 of 2): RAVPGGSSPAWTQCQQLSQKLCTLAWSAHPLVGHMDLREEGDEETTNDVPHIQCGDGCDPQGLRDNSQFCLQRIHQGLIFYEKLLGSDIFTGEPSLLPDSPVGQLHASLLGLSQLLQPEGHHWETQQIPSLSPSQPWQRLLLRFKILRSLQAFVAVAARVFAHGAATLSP
T1 sequence (P29460 23-328, chain 2 of 2): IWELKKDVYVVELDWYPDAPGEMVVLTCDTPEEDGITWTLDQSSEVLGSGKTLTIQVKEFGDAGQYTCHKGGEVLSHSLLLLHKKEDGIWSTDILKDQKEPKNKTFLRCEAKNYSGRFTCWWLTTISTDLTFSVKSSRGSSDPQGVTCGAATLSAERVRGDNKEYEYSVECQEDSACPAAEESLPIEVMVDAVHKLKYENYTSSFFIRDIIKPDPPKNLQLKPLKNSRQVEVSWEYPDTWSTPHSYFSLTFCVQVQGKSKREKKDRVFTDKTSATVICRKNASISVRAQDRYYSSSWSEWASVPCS
Protocol: In summary, the cell-based assay was conducted by isolating the peripheral blood mononuclear cells (PBMCs) from whole blood using a Histopaque gradient (Sigma, St. Louis, Mo.). The PBMCs were cultured for 3 to 5 days at 37° C./5% CO₂ in Peripheral Blood Medium (Sigma) which contains PHA, supplemented with IL-2 (100 units/mL) (R&D Systems, Minneapolis, Minn.), to generate PHA Blasts. To test IL-23 aptamers, the PHA Blasts were washed twice with 1×PBS, then serum starved for four hours in RPMI, 0.20% FBS. After serum starvation, approximately 2 million cells were aliquotted into appropriately labeled eppendorf tubes. hIL-23 at a final constant concentration of 3 ng/mL (R&D Systems, Minneapolis, Minn.) was combined with a dilution series of various IL-23 aptamers as described in Example 1, and the cytokine/aptamer mixture was added to the aliquotted cells in a final volume of 100 μl and incubated at 37° C. for 10-12 minutes. The incubation reaction was stopped by adding 1 mL of ice-cold PBS with 1.5 mM Na₃VO₄. Cell lysates were made using the lysis buffer provided by the TransAM™ STAT 3 assay following the manufacturer's instructions. FIG. 20 depicts a flow summary of the protocol used for the cell based assay.
Full length clones from the rRfY selection described in Example 1A, and select minimized rRfY clones that were described in Example 2A. 1, were tested using the TransAM™ STAT3 activation assay. Table 34 summarizes the cell based assay data for IL-23 full length aptamers generated from the rRfY selections described in Example 1A. 1, each compared to the activity of their respective parent (full length) clone.

Q: B1 was tested. Which IC50 did it give?
A: 250 nM

Q: How did the IC50 turn out when B2 was run?
A: 500 nM

Q: B3 was tested. Which IC50 did it give?
A: 250 nM

Q: With B4 as the binder, how does the IC50 read?
A: 25 nM

Q: How did the IC50 turn out when B5 was run?
A: 50 nM

Q: With GGAGUACGCCGAAAGGCGCUUCCGAAAGGACGUCCGUAAGGGAUACUCC (ssRNA, 2'-F C,U) [Type 1.5] as the binder, how does the IC50 read?
A: 80 nM

Q: For B6, which IC50 is on record?
A: 250 nM

Q: For B7, which IC50 is on record?
A: 300 nM

biological target: IL-12 (human, p35/p40 heterodimer) (Homo sapiens, UniProt P29459;P29460 SEQ:57-253,SEQ:23-328); assay: filter; no significant binding; conditions: not given
Sequence (P29459 23-219, chain 1 of 2): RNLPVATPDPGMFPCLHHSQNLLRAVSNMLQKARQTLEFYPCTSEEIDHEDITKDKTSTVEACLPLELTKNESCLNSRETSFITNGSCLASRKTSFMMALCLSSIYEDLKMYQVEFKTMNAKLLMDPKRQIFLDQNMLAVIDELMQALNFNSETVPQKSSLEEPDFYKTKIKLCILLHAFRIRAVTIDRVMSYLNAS
Sequence (P29460 23-328, chain 2 of 2): as the sequence (P29460 23-328, chain 2 of 2) above

Q: Does B8 bind?
A: no binding

Q: Does B9 bind?
A: no binding

Q: Does B10 bind?
A: no binding

Q: Does B3 bind?
A: no binding

Q: Does B11 bind?
A: no binding

Q: Does B5 bind?
A: no binding

Q: Does B12 bind?
A: no binding

Q: Does B13 bind?
A: no binding

Q: Does B14 bind?
A: no binding

Q: Does B15 bind?
A: no binding

Q: Does B16 bind?
A: no binding

Q: Does B6 bind?
A: no binding

Q: Does B17 bind?
A: no binding

Q: Does B18 bind?
A: no binding

Q: Does B19 bind?
A: no binding

Q: Does B20 bind?
A: no binding

Q: Does B21 bind?
A: no binding

Q: Does B22 bind?
A: no binding

Q: Does B23 bind?
A: no binding

Q: Does B24 bind?
A: no binding

Q: Does B25 bind?
A: no binding

biological target: T1, IL-23 (human, p19/p40 heterodimer); assay: filter; SHMCK, tRNA; conditions: tags: R&D Systems, carrier free
Protocol: Monitoring Progress of rRfY Selection. Dot blot binding assays were performed throughout the selections to monitor the protein binding affinity of the pools. Trace ³²P-labeled RNA was combined with a dilution series of h-IL-23 and incubated at room temperature for 30 minutes in 1×SHMCK (20 mM Hepes, 120 mM NaCl, 5 mM KCl, 1 mM MgCl₂, 1 mM CaCl₂, pH 7.4) plus 0.1 mg/mL tRNA for a final volume of 20 μL. The binding reactions were analyzed by nitrocellulose filtration using a Minifold I dot-blot, 96-well vacuum filtration manifold (Schleicher & Schuell, Keene, N.H.). A three-layer filtration medium was used, consisting (from top to bottom) of Protran nitrocellulose (Schleicher & Schuell), Hybond-P nylon (Amersham Biosciences) and GB002 gel blot paper (Schleicher & Schuell). RNA that is bound to protein is captured on the nitrocellulose filter, whereas the non-protein bound RNA is captured on the nylon filter. The gel blot paper was included simply as a supporting medium for the other filters. Following filtration, the filter layers were separated, dried and exposed on a phosphor screen (Amersham Biosciences, Piscataway, N.J.) and quantified using a Storm 860 Phosphorimager® blot imaging system (Amersham Biosciences).
When a significant positive ratio of binding of RNA in the presence of h-IL-23 versus in the absence of h-IL-23 was seen, the pools were cloned using a TOPO TA cloning kit (Invitrogen, Carlsbad, Calif.) according to the manufacturer's instructions. For the h-IL-23 and X-IL-23 selections, the Round 8 pool templates were cloned, and 32 individual clones from each selections were assayed in a 1-point dot blot screen (+/−75 nM h-IL-23, as well as a separate screen at +/−75 nM h-IL-12). For the PN-IL-23 selection, the Round 10 pool was cloned and sequenced, and 8 unique clones were assayed for protein binding in a 1-point dot blot screen (+/−200 nM h-IL-23 and a separate screen at +/−200 nM h-IL-12). Subsequently, the Round 10 PN-IL-23 pool was re-cloned for further sequences, as well as the R12 PN-IL-23 pool, and the clones were assayed for protein binding in a 1 point do blot screen (+/−100 nM h-IL-23 or +/−200 nM h-IL-12).

Q: Which Kd does the source give for B8 here?
A: 196 nM

Q: B9 was tested. Which Kd did it give?
A: 109 nM

Q: With B10 as the binder, how does the Kd read?
A: 17.8 nM

Q: B3 was tested. Which Kd did it give?
A: 94.3 nM

Q: With B11 as the binder, how does the Kd read?
A: 202 nM

Q: With B5 as the binder, how does the Kd read?
A: 266 nM

Q: Which Kd does the source give for B12 here?
A: 205 nM

Q: Which Kd does the source give for B13 here?
A: 104 nM

Q: Which Kd does the source give for B14 here?
A: 89.8 nM

Q: With B15 as the binder, how does the Kd read?
A: 107 nM

Q: B16 was tested. Which Kd did it give?
A: 82.3 nM

Q: B6 was tested. Which Kd did it give?
A: 291 nM

Q: For B17, which Kd is on record?
A: 60.8 nM

Q: Which Kd does the source give for B18 here?
A: 190 nM

Q: For B19, which Kd is on record?
A: 69.1 nM

Q: For B20, which Kd is on record?
A: 140 nM

Q: For B21, which Kd is on record?
A: 148 nM

Q: With B22 as the binder, how does the Kd read?
A: 27.8 nM

Q: B23 was tested. Which Kd did it give?
A: 294 nM

Q: B24 was tested. Which Kd did it give?
A: 51.3 nM

Q: With B25 as the binder, how does the Kd read?
A: 60.3 nM
